Measured values reported in patent publication US20120316071A1.
Several values for one entry are separate records, joined by “and”; a condition that tells them apart may be missing. Equal values may be shown once.

How the values were obtained:
[1] = target: rHuman P-Cadherin/Fc Chimera, CF (R&D Systems Cat#861-PC) (human) (UniProt P22223); experiment: MSD ECL multispot assay, antigen spotted on plate, Fab in solution; blank spot of this row 348
[2] = target: rHuman P-Cadherin/Fc Chimera, CF (R&D Systems Cat#861-PC) (human) (UniProt P22223); experiment: MSD ECL multispot assay, antigen spotted on plate, Fab in solution; blank spot of this row 504
[3] = target: Recombinant Human DLL4 (human) (UniProt Q9NR61); experiment: ECL (MSD) multispot binding assay, DLL4 signal over blank spot
[4] = target: Recombinant Human DLL4 (delta-like protein 4) (human) (UniProt Q9NR61); experiment: ECL multispot (MSD) binding assay; antigen spotted on plate, Fab in solution
[5] = target: Recombinant Human DLL4 (human) (UniProt Q9NR61); experiment: ECL (MSD) multispot binding assay, DLL4 spotted on plate, Fab in solution
[6] = target: rHuman P-Cadherin/Fc Chimera, CF (R&D Systems Cat#861-PC) (human) (UniProt P22223); experiment: MSD multispot ECL, antigen spotted, Fab 595.8 nM; blank spot 285
[7] = target: rHuman P-Cadherin/Fc Chimera, CF (R&D Systems Cat#861-PC) (human) (UniProt P22223); experiment: MSD multispot ECL, antigen spotted, Fab 148.9 nM; blank spot 218
[8] = target: rHuman P-Cadherin/Fc Chimera, CF (R&D Systems Cat#861-PC) (human) (UniProt P22223); experiment: MSD multispot ECL, antigen spotted, Fab 0.1 nM; blank spot 201
[9] = target: rHuman P-Cadherin/Fc Chimera, CF (R&D Systems Cat#861-PC) (human) (UniProt P22223); experiment: MSD multispot ECL, antigen spotted, Fab 2383 nM; blank spot 344
[10] = target: rHuman P-Cadherin/Fc Chimera, CF (R&D Systems Cat#861-PC) (human) (UniProt P22223); experiment: MSD multispot ECL, antigen spotted, Fab 0.6 nM; blank spot 226
[11] = target: rHuman P-Cadherin/Fc Chimera, CF (R&D Systems Cat#861-PC) (human) (UniProt P22223); experiment: MSD multispot ECL, antigen spotted, Fab 37.2 nM; blank spot 199
[12] = target: rHuman P-Cadherin/Fc Chimera, CF (R&D Systems Cat#861-PC) (human) (UniProt P22223); experiment: MSD multispot ECL, antigen spotted, Fab 9.3 nM; blank spot 287
[13] = target: rHuman P-Cadherin/Fc Chimera, CF (R&D Systems Cat#861-PC) (human) (UniProt P22223); experiment: MSD multispot ECL, antigen spotted, Fab […]; blank spot 234
[14] = target: rHuman Erythropoietin R/Fc Chimera, CF (R&D Systems Cat#963-ER) (human) (UniProt P19235); experiment: MSD multispot ECL, antigen spotted on plate, Fab at 51 nM (blank spot 335)
[15] = target: rHuman Notch-1/Fc Chimera, CF (R&D Systems Cat#3647-TK) (human) (UniProt P46531); experiment: as above
[16] = target: rHuman EGF R/Fc Chimera, CF (R&D Systems Cat#344-ER) (human) (UniProt P00533); experiment: as above
[17] = target: rHuman CD44/Fc Chimera, CF (R&D Systems Cat#3660-CD) (human) (UniProt P16070); experiment: as above
[18] = target: rHuman IGF-1 sR, CF (R&D Systems Cat#391-GR) (human) (UniProt P08069); experiment: as above
[19] = target: rHuman HGF R/c-MET/Fc Chimera, CF (R&D Systems Cat#358-MT/CF) (human) (UniProt P08581); experiment: as above
[20] = target: rHuman P-Cadherin/Fc Chimera, CF (R&D Systems Cat#861-PC) (human) (UniProt P22223); experiment: as above
[21] = target: rHuman ErbB2/Fc Chimera, CF (R&D Systems Cat#1129-ER) (human) (UniProt P04626); experiment: as above
[22] = target: rHuman Erythropoietin R/Fc Chimera, CF (R&D Systems Cat#963-ER) (human) (UniProt P19235); experiment: MSD multispot ECL, antigen spotted on plate, Fab at 6 nM (blank spot 191)
[23] = target: rHuman Notch-1/Fc Chimera, CF (R&D Systems Cat#3647-TK) (human) (UniProt P46531); experiment: as above
[24] = target: rHuman EGF R/Fc Chimera, CF (R&D Systems Cat#344-ER) (human) (UniProt P00533); experiment: as above
[25] = target: rHuman CD44/Fc Chimera, CF (R&D Systems Cat#3660-CD) (human) (UniProt P16070); experiment: as above
[26] = target: rHuman IGF-1 sR, CF (R&D Systems Cat#391-GR) (human) (UniProt P08069); experiment: as above
[27] = target: rHuman HGF R/c-MET/Fc Chimera, CF (R&D Systems Cat#358-MT/CF) (human) (UniProt P08581); experiment: as above
[28] = target: rHuman P-Cadherin/Fc Chimera, CF (R&D Systems Cat#861-PC) (human) (UniProt P22223); experiment: as above
[29] = target: rHuman ErbB2/Fc Chimera, CF (R&D Systems Cat#1129-ER) (human) (UniProt P04626); experiment: as above
[30] = target: rHuman Erythropoietin R/Fc Chimera, CF (R&D Systems Cat#963-ER) (human) (UniProt P19235); experiment: MSD multispot ECL, antigen spotted on plate, Fab at 17 nM (blank spot 143)
[31] = target: rHuman Notch-1/Fc Chimera, CF (R&D Systems Cat#3647-TK) (human) (UniProt P46531); experiment: as above
[32] = target: rHuman EGF R/Fc Chimera, CF (R&D Systems Cat#344-ER) (human) (UniProt P00533); experiment: as above
[33] = target: rHuman CD44/Fc Chimera, CF (R&D Systems Cat#3660-CD) (human) (UniProt P16070); experiment: as above
[34] = target: rHuman IGF-1 sR, CF (R&D Systems Cat#391-GR) (human) (UniProt P08069); experiment: as above
[35] = target: rHuman HGF R/c-MET/Fc Chimera, CF (R&D Systems Cat#358-MT/CF) (human) (UniProt P08581); experiment: as above
[36] = target: rHuman P-Cadherin/Fc Chimera, CF (R&D Systems Cat#861-PC) (human) (UniProt P22223); experiment: as above
[37] = target: rHuman ErbB2/Fc Chimera, CF (R&D Systems Cat#1129-ER) (human) (UniProt P04626); experiment: as above
[38] = target: rHuman Erythropoietin R/Fc Chimera, CF (R&D Systems Cat#963-ER) (human) (UniProt P19235); experiment: MSD multispot ECL, antigen spotted on plate, Fab at 154 nM (blank spot 447)
[39] = target: rHuman Notch-1/Fc Chimera, CF (R&D Systems Cat#3647-TK) (human) (UniProt P46531); experiment: as above
[40] = target: rHuman EGF R/Fc Chimera, CF (R&D Systems Cat#344-ER) (human) (UniProt P00533); experiment: as above
[41] = target: rHuman CD44/Fc Chimera, CF (R&D Systems Cat#3660-CD) (human) (UniProt P16070); experiment: as above
[42] = target: rHuman IGF-1 sR, CF (R&D Systems Cat#391-GR) (human) (UniProt P08069); experiment: as above
[43] = target: rHuman HGF R/c-MET/Fc Chimera, CF (R&D Systems Cat#358-MT/CF) (human) (UniProt P08581); experiment: as above
[44] = target: rHuman P-Cadherin/Fc Chimera, CF (R&D Systems Cat#861-PC) (human) (UniProt P22223); experiment: as above
[45] = target: rHuman ErbB2/Fc Chimera, CF (R&D Systems Cat#1129-ER) (human) (UniProt P04626); experiment: as above

Sequence of rHuman HGF R/c-MET/Fc Chimera, CF (R&D Systems Cat#358-MT/CF) (human) (P08581 25-932, change not shown): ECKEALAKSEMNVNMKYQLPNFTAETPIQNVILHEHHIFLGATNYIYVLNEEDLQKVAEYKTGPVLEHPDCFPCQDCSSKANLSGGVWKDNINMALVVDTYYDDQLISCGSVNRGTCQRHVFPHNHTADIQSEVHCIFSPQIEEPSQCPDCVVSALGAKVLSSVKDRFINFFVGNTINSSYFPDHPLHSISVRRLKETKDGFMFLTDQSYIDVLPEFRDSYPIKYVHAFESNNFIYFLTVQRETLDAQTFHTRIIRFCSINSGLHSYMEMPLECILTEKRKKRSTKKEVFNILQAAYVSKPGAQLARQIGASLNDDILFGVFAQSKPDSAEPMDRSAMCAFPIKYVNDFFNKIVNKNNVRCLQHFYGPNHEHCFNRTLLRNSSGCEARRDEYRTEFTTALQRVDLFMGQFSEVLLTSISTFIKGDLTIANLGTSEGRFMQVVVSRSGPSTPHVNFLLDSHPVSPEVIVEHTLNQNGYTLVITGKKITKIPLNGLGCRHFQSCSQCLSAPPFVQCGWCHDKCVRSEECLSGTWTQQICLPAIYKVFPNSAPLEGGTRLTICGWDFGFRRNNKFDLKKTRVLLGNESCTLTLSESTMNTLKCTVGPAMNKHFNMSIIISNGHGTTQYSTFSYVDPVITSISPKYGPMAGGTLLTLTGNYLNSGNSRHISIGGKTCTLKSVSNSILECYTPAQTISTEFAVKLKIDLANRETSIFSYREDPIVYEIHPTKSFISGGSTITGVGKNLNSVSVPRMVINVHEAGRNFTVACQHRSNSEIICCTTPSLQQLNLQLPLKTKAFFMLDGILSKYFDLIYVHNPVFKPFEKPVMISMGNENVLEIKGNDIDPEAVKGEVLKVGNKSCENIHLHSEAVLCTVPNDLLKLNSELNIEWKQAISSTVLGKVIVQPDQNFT
Sequence of rHuman Erythropoietin R/Fc Chimera, CF (R&D Systems Cat#963-ER) (human) (P19235 25-250, change not shown): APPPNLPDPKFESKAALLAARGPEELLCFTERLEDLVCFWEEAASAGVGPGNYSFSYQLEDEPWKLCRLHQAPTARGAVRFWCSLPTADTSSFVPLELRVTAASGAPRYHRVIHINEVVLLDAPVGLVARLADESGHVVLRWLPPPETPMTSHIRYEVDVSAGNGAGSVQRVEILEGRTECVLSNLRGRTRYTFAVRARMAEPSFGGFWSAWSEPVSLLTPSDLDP

Substance: Fab VH1-46_IGHD6-6*01_IGHJ1*01 S102A/S103P/S104F/H111F (APFF) & L6_IGKJ1*01 S92C
- ECL signal [1]: 786
- ECL signal [2]: 930

Substance: Fab VH1-46_IGHD6-6*01_IGHJ1*01 S102A/S103P/S104F/H111F (APFF) & L6_IGKJ1*01 S92R
- Signal/Blank [3]: 1.7
- ECL signal [4]: 418 and 587
- ECL signal [5]: 418

Substance: Fab VH1-46_IGHD6-6*01_IGHJ1*01 & L6_IGKJ1*01
- ECL signal [6]: 617 ECL signal
- ECL signal [7]: 687 ECL signal
- ECL signal [8]: 235 ECL signal
- ECL signal [9]: 728 ECL signal
- ECL signal [10]: 321 ECL signal
- ECL signal [11]: 649 ECL signal
- ECL signal [12]: 452 ECL signal
- ECL signal [13]: 401 ECL signal

Substance: Fab VH5-51_IGHD5-18*01>3_IGHJ4*01 & V3-4_IGLJ1*01
- ECL signal [14]: 750
- ECL signal [15]: 685
- ECL signal [16]: 816
- ECL signal [17]: 651
- ECL signal [18]: 1050
- ECL signal [19]: 1040
- ECL signal [20]: 854
- ECL signal [21]: 1250
- ECL signal [22]: 548
- ECL signal [23]: 464
- ECL signal [24]: 742
- ECL signal [25]: 547
- ECL signal [26]: 854
- ECL signal [27]: 831
- ECL signal [28]: 358
- ECL signal [29]: 873
- ECL signal [30]: 620
- ECL signal [31]: 558
- ECL signal [32]: 805
- ECL signal [33]: 518
- ECL signal [34]: 872
- ECL signal [35]: 914
- ECL signal [36]: 542
- ECL signal [37]: 1030
- ECL signal [38]: 1200
- ECL signal [39]: 929
- ECL signal [40]: 1400
- ECL signal [41]: 960
- ECL signal [42]: 1400
- ECL signal [43]: 1520
- ECL signal [44]: 1730
- ECL signal [45]: 1590
